The DeepSol protein solubility set

Test: soluble on expression in E. coli; label from the status in PepcDB or PDB records

| Sequence | soluble on expression in E. coli |
| --- | --- |
| SGSCCSCPDKDTVPDNHRNKFKVINVDDDGNELGSGIMELTDTELILYTRKRDSVKWHYLCLRRYGYDSNLFSFESGRRCQTGQGIFAFKCARAEELFNMLQEIMQNNSINVVEEPVVERNNHQTELEVPRTPRTPTTPGFAAQNLPNGYPRYPSFGDASSHPSSRHPSVGSARLPSVGEESTHPLLVAEEQVHTYVNTTGVQEERKNRTSVHVPLEARVSNAESSTPKEEPSSIEDRDPQILLEPEGVKFVLGPTPVQKQLMEKEKLEQLGRDQVSGSGANNTEWDTGYDSDERRDAPSVNKLVYENINGLSIPSASGVRRGRLTSTSTSDTQNINNSAQRRTALLNYENLPSLPPVWEARKLSRDEDDNLGPKTPSLNGYHNNLDPMHNYVNTENVTVPASAHKIEYSRRRDCTPTVFNFDIRRPSLEHRQLNYIQVDLEGGSDSDNPQTPKTPTTPLPQTPTRRTELYAVIDIERTAAMSNLQKALPRDDGTSRKTRHNSTDLPMLAWK | soluble |
| NVQHQLAQFQQLQQQAQAISVQKQTVEMQINETQKALEELSRAADDAEVYKSSGNILIRVAKDELTEELQEKLETLQLREKTIERQEERVMKKLQEMQVNIQEAMKGAG | soluble |
| MSCCKECGHTLENVEVEAYEKRQVFDIPPVNLIVTEHKSQIKTCPHCGRINKAVFPESVKYPVQYGPNILASAIYCKNHHFIPYERISEFFEDIMGIKICPATIIRAEKECFQNLECFENIIREKLMTSYVVHFDETGMKIEGKRHWLHVASNDKYTCYLPHSKRGAEAIDAMGILPEFKGVAVHDGWKPYNVYDCDHAL | not soluble |
| MGSDKIHHHHHHILLDYVESLVLSSVFPKRDFLSPTSNYLNGLKEVLYYQIFPERFANGDPSNDPNGSQSWDVDPAYANLGGDGFFGGDLKGIIDHFDHILELGVEAIYLNPIFESPSSHKYDTEDYLKIDDNFGNDYVFEEFISLAEDSGIKLILDGVFNHTGYDFFAFKDLREREETSPYKDWYFVKRFPIRKIQDRAMTYVGWNGYAYMPKVNSLNEGWQAYVERLVRKYNLEGIGGWRLDVATEVDPLFWSGFFRPLVKSLEKDMILVAEFWGDARSLLRGKTFDSAMNYPFKEAVIEYVFRAGNSAAKFAAMTNLYLNAYPPQTLHSLWNILDSHDTERILTLAFNQVDLLKIAVAIQMTFIGSPVIYYGDEVGMKGGKDPENRAPMLWDEEKWNWEIYDFYKTLIDLRRTHESIKDGEYEVLTAEGPVFSFRRWKDSEEVIVVINPSRENAFFNPEFEGEFCEYLSGRSISFFENKAEITPLTVWILVQED | not soluble |
| MKVAIIGATGYGGIELIRLLEQHPYFSIASLHSFSQVGECITNVYPHFQNVLVHTLQEIDVEEIEKEAEIVFLATPAGVSAELTPKLLAVGLKVIDLSGDFRMKDPFIYEQWYKRAAAKEGVLREAVYGLSEWKRSEIQKANLIANPGCFATAALLAILPLVRSGIIEEDSIIIDAKSGVSGAGKTPTTMTHFPELYDNLRIYKVNEHQHIPEIEQMLAEWNRETKPITFSTHLIPISRGIMVTLYAKVKREMEIEQLQQLYEEAYEQSAFIRIRMQGEFPSPKEVRGSNYCDMGIAYDERTGRVTIVSVIDNMMKGAAGQAIQNANIVAGLEETTGLQHMPLYL | not soluble |
| MYGVLVWPPEDLRRFMEELQAARGVRGFGPPHLNLRQPFDWPYEEEALRIALAGILRGHPPFRVRLGDWRFFPQGVVYLRAYGGGAFRRLYHALEPLAPPLKEIEGPSYIPHLTLALGLSPEEAKALAQSLPPPPRRSFLVREAALVRDEGEGLVEVARFPLGPSPER | soluble |
| KRLQQKIEKGELDRMPEVKEADIECCGQHEVCEKDSLLAAVSKKIEYYDDEELDQFIGKEANAYTDEETNQFRDVLYTMQDIDVAGWVRSLQLRGIELPDDLKDEVFLIIGERRNG | soluble |
| MKLERVLPFARSLLQTAVKEGDYAVDATLGNGHDTCFLAEIVGDNGKVFGFDIQKEAIESSTTRLKEKELFERTVLVHDSHDTLLSILPEDAKGKVTGAIFNLGYLPGGDKHIVTKPNSTISAIEQLLEVMAPEGIIVLVIYHGHPEGQVERDAVLKFAEELDQKQAHVLRYGFINQQNNPPFIVAIEKRLEHHHHHH | soluble |
| MAISSVGFACRSFSPVRTLQSHCLWKIRFNTVAAAIETMDESDGFATDSDRQDKVSDEPRDREWKQLNSKDLGLSSSMIAKSTRKVLNGLKSKGHDVYLVGGCVRDLILKRTPKDFDILTSAELREVSSFSTSAQNSSRNTRTECKESSGSDGDEDCIRLNNCLQRDFTINGLMFDPYAKVVYDYLGGMEDIRKAKVRTVIHAGTSFHQDCARILRAIRIAARLGFRMSKETAHFIKNLSLLVQRLDKGRILMEMNYMLAYGSAEASLRLLWKFGILEILLPIQAAYLARSGFRRRDKRTNMLLSLFANLDKLLAPDRPCHSSLWIAILAFHKALADKPRSPIVVAAFSLAVHNCGDILEAVEITKKITRPHDKSFFELVEPEENLDFQTLLDEVMDLDASIEDALNQMTDAYFISKAMSAYPQAPYSDLVFIPLQLYLRAGRIFDCVKNEETRIGFEAKQGSKIEYGSLNSGYFPEIRHVFARVVFDTVFPLNLSQEL | soluble |
| MGSDKIHHHHHHMEPNDAVVGVDVSKEHLDVYLMPTGDQKRVTNDDAGCAELTTWLITNAPCRIVLEATGGLEMLAVSTLSAAGLPVVVVNPRQVRNFAKACGLLAKTDILDAKIIARFAQAIKPEIRPLKDETSQNLAALLARRRQLVEMLVAEKNRVISAAPTVRKGIMTHIAWLTQQIDDVDKDISTLIQSSESWKAKEEILTSVKGIGPVTAATILAALPELGTISRQQLGALVGVCPYNRDSGKFRGKRAISGGRATVRSVLYMATLCAARFNPVIKAFYQRLTSAGKLHKVAITACMRKLLTILNAMVKNNQKWDHSKFTPLLH | not soluble |
| MSEFFIQEQQLGKVTRTIVKDQAGRSLFLLVGRWGTRGDALSLYAMNGEILASIKQVSWTFGTRFELYQRFEKVGTLRKLFNLNADFYYVQGLHWAVVGDIKAHQYSIYQVHKKIMSMDKTMLCTGDYFVLTVANDEDAPLCICIAAVLDYWLYNKKKQKTSDDFGLDFDPLTD | not soluble |
| MRKLKITELNRISAEEFKQAEKLPLVVVLDDIRSLHNIGSVFRTSDAFRIECIYLCGITATPPHPEMHKTALGAEFTVDWKYVNNAVDAVDNLRKEGYIVYSIEQAEGSIMLDRLELDKTKKYAIVMGNEVKGVQQEVIDHSDGCIEIPQYGTKHSLNVSVTTGIVIWDLFKKLR | not soluble |
| MSLTPYEPFRHLDQMRREFDRFFPDFPIDLPNRHLTLSPKMDVHETDHEVILECDIPGLESKEDLQIDVEPRSVRIEGRIKRSKEVHDERFYRREREIGHFRRVVPLPAEVAEDDIRAAYRNGVLEVRMRKRLDDRRRTIDVEFHLEHHHHHH | soluble |
| SLTPLRVLIVEDDPRIAQLHQRFCEKVAGFEVSGLAATYEEADELATILEPDLLLLDLYLPDGNGMDLLRQLRSRGQEVDVVLITAAKDVAAVQQALRAGAFDYIVKPAVFARFEEALTKFAAYRQQLEQGDVLNQNDIDQLLHSHHQPKVMDRGAVPKGIDPLTLTKIRQVFADQEQQGLSAEEVGAQIGASRSTARRYLEYMVSISELTADVVYGTVGRPERRYFSFENEG | soluble |
| MSLKTFLVCALEPSANLHLKEVLKAYKKDFGEFELHGIYDESLCKEFDLNSKPLYSSHEFSAMGFIEVLPLIFKAKKAIKELANLSFTQKINGILCIDSPAFNIPFAKALKKAGSKIPRIYYILPQVWAWKKGRIPIIESHFDILASILPFDNQFFNKSTYIGHPLLDEIKEFKNQEDINHTFSKKDDEKTIAFLPGSRRSEIRRLMPIFKELSQKFKGKKILCVPSFNLEKLEVYGDISEFKIESNTPKVLKKADFAFICSGTATLEAALVGTPFVLAYKAKAIDIFIAKLFVKLKHIGLANIFCDFAGKEALNPEFLQDKVNVLNLYEAYNKYDYKAFFAKVDFLKEYLQFGSAKNLAKILNEIEGHHHHHH | soluble |
| MGSDKIHHHHHHMLRSTISLLMNSAAQKTMTNSNFVLNAPKITLTKVEQNICNLLNDYTDLYNQKYHNKPEPLTLRITGGWVRDKLLGQGSHDLDIAINVMSGEQFATGLNEYLQQHYAKYGAKPHNIHKIDKNPEKSKHLETATTKLFGVEVDFVNLRSEKYTELSRIPKVCFGTPEEDALRRDATLNALFYNIHKGEVEDFTKRGLQDLKDGVLRTPLPAKQTFLDDPLRVLRLIRFASRFNFTIDPEVMAEMGDPQINVAFNSKISRERVGVEMEKILVGPTPLLALQLIQRAHLENVIFFWHNDSSVVKFNEENCQDMDKINHVYNDNILNSHLKSFIELYPMFLEKLPILREKIGRSPGFQQNFILSAILSPMANLQIIGNPKKKINNLVSVTESIVKEGLKLSKNDAAVIAKTVDSICSYEEILAKFADRSQLKKSEIGIFLRNFNGEWETAHFASLSDAFLKIPKLETKKIELLFQNYNEFYSYIFDNNLNNCHELKPIVDGKQMAKLLQMKPGPWLGKINNEAIRWQFDNPTGTDQELITHLKAILPKYL | not soluble |
| MSLSGLHQADLEMVAAAYAKSNATIVTYGMGITQHNEGTANVRLICDLLMLRGNLGKPGAGICPLRGHSNVQGNRTVGITEKPSPAFLDKLQQTFGFTPPAHHGHDAVQAMQAMIAGSAKALLCLGGNFAVALPDPGQCFPAMGKLDLSVHIATKLNRSHLLVARETFLFPCLGRTELDMQDGLRQAITVEDSMSMVHASAGKLAPASEFLLSEPAIVAGMARATLPGSRVPWLELVADYDKIRDLIEQTVPGFDDYNARIRVPGGFRMPLAAAERQWLTPSGKAEFFVFPGLHEDKEVDGADVLRLITLRSHDQYNTTIYALDDRYRGVFGRRDVLFISPADLAARGLAHGDLVDIETVIGGRRLRYEKITAIEYKIANGTVGAYYPEANRLVPLDYLDVDSGTPSYKSVPVRVLRSSPAEGHHHHHH | not soluble |
| SAGVRGLRFVERFGDNTASLIKNAILLDQQKVEVFNIRFKSSRDFTIQIKLNAKGNYKKSEVEKYKSQIGVQDNELGDKEEGTLEADLIFTYTPPASNLFSKSNFDKLTKSINFNTNLKLEMVGKDEVMRKILNSSAFTNNLASVNYPNQAVNLLPYVLYSIL | not soluble |
| GMISDSISKRRSIRKYKNQSISHETIEKIIEAGINAPSSKNRQPWRFVVITEKEKESMLKAMSKGIQNEINDNGLLPGSRQHIAGANYTVEIMKQAPVTIFILNILGKSPLEKLSPEERFYEMANMQSIGAAIQNMSLTAVELGLGSLWICDVYFAYRELCEWLNTDSQLVAAISLGYPDEEPSRRPRLQLSDVTEWR | soluble |
| MAHHHHHHMIGSFRIIRLPRTASSLRSLNGGQRSPHDDVVCGRQPQGLEGGRKGESVDGGIRPSFTRVGQLTDTYRTRRAGWLCQRDDRWTERRPFQPAGIFLEGGEEAGRVDLRLTDMQRIYDVGPISAENERFAASTLLYATDEVRSLLVEKEWIKLYCLHGVAAADDECNIAFVDLTEKLEDVKRVLVAWKEKDA | not soluble |
| MGSDKIHHHHHHMSSASLLWCHSGVSTVRFGERIFTLVAGDLLFAPEEAQVADDSQGLVLNIRFETLNIMGPARRIHLGHVWNDRLTFEYSRSLFGKETLSPDIARLFTDRVPTPPLPAPRKARAVAQVLVSNPADQTSLEEFAEIQGVSARTLQRQFLKSTGYSFSEWRAAQRVCVAASLLAHDFSISVVANLVGFAATSSLTRAFRRHTGATPSTFTTGQIGMGSAGHPPRIPATTTFAEAHQDQQLWIYSGTATVTTPGYCRFMGQGDMVTIPAGTQTRIDVAAGSIAFPVPVGLDEWGMDLTRVVAVNNQQPKPLTILEQSEWSKLSEELLNTPVPVQM | not soluble |
